Biological target: C1q (Complement Technologies, Tyler, Tex.) (UniProt P02745)
Assay: cell-based or functional assay

UniProt P02745, sequence (P02745 23-245 limits assumed, chain 1 of 3): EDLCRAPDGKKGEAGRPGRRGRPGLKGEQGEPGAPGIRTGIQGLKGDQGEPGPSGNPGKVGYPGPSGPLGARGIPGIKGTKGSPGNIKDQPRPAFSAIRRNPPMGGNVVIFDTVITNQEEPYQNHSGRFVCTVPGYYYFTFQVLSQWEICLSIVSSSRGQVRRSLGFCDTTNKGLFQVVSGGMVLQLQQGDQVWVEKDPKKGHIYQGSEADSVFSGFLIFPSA
UniProt P02745, sequence (P02746 28-253 limits assumed, chain 2 of 3, further chain): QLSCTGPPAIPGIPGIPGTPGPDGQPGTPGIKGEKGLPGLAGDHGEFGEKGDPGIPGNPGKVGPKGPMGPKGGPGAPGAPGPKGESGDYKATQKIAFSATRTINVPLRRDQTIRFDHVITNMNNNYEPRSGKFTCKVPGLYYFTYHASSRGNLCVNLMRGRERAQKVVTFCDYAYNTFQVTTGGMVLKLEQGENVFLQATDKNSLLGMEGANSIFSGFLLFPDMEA
UniProt P02745, sequence (P02747 29-245 limits assumed, chain 3 of 3, further chain): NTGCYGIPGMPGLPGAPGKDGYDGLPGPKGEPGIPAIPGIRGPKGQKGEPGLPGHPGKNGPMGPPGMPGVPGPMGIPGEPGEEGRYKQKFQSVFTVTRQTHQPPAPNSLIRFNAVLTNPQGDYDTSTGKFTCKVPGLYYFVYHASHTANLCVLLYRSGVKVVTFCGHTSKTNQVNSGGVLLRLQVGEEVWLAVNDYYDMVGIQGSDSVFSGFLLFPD

Substance: Anti-CD38 antibody (005), collected K2 isoform (two heavy-chain C-terminal lysines per antibody)
- EC50 values [µg/mL] for C1q requirement for induction of CDC of Daudi cells: 4.8 µg/mL

Substance: Anti-CD38 antibody (005), unfractionated preparation isolated from hybridoma supernatant
- EC50 values [µg/mL] for C1q requirement for induction of CDC of Daudi cells: 1.3 µg/mL

Substance: Anti-CD38 antibody (005), unfractionated preparation after carboxypeptidase B treatment
- EC50 values [µg/mL] for C1q requirement for induction of CDC of Daudi cells: 0.8 µg/mL
- efficacy of C1q utilization, fold improvement by carboxypeptidase B treatment: < 2 fold
